Assay results published in US20260209348A1 (University of California, published 2026).

Molecular target: T1, ROR1-Ig (human, UniProt Q01973 30-406)
T1 construct: extracellular domain; also called control ROR1-Ig; not shown: CH2-CH3 constant region domains of human IgG1 (same human IgG domains as ROR2-Ig)
Assay: flow cytometry, ROR1-Ig then anti-human IgG-PE, Jurkat cells transfected with the CAR
Protocol: All cells were assessed after 48 hours by flow cytometry for binding of recombinant human ROR2-Ig protein comprised of the ROR2 extracellular domain and the CH2-CH3 constant region domains of human IgG1. Cells were stained on ice for 20 minutes with 1 μg/ml of recombinant ROR2-Ig (upper panel) or 1 μg/ml of control ROR1-Ig (lower panel). washed, stained for an additional 20 minutes on ice with phycoerythrin (PE)-conjugated anti-human IgG1 antibody, washed and analyzed by flow cytometry. Shaded histograms depict the relative fluorescence intensity (x axis) of viable cells, as determined by light scatter characteristics, stained with either ROR2-Ig or ROR1-Ig compared to cells stained with the anti-human IgG1-PE antibody only (open histograms). […] Conversely, ROR1 CAR transfected cells bind only to ROR1-Ig.

T1 sequence (Q01973 30-406): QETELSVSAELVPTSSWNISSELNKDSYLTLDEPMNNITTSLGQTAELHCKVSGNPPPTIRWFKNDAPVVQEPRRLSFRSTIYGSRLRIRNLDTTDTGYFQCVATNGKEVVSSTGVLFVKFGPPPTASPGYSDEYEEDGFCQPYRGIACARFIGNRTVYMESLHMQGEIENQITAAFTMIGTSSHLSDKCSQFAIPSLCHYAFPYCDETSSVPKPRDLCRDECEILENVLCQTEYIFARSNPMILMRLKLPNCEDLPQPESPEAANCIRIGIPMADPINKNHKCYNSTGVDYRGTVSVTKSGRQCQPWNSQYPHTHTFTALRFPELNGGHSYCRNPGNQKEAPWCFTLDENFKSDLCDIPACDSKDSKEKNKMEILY

binding result: no binding (tested: 1 ug/ml)
B1: h6E6-116 anti-human ROR2 chimeric antigen receptor (other, not shown: small tags and cut ends)
chain: EVQLVESGGGLVKPGGSLRLSCAASGFTFSTYGVSWVRQAPGKGLEWVSTISSGGGYTHYAGSVKGRFTISRDNAKNSLYLQMNSLRAEDTAVYYCARHPRDFSYALDYWGQGTTVTVSSEIVMTQSPATLSVSPGERATLSCRASQDVGHYLAWYQQKPGQAPRLLIYWASTRATGIPARFSGSGSGTEFTLTISSLQSEDFAVYYCQQYNIYPWTFGQGTKVEIK
notes: Expressed on transfected Jurkat cells
